To fix the notation:
T1: human ASGR-1 (wild type) (human, UniProt P07306 1-291)
T1 construct: also called wt ASGR1; huASGR-1
T1 sequence: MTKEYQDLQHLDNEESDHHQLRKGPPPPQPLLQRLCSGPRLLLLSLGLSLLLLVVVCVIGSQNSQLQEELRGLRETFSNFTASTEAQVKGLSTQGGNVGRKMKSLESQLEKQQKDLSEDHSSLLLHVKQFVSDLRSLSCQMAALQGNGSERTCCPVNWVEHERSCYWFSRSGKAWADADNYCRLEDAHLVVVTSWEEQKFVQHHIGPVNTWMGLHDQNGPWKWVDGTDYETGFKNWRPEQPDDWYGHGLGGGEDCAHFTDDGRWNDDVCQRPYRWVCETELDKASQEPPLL

T2: human ASGR-1 mutant construct H203 (human, UniProt P07306 1-291)
T2 construct: Arg/Glu scanning: non-arginine residues were changed to arginine; Transiently expressed on CHO-S cells
T2 sequence: T1 sequence with H203R

B1: 7E11 (antibody, V domains shown)
VH: QVQLVESGGGVVQPGRSLRLSCAASGFTFSSFGMHWVRQAPGKGLEWVAIIWHDGSNKYYADSVKGRFTISRDNSNNTLYLQMSSLRAEDTAVYYCARDLSMGGMDVWGQGTTVTVSS
VL: DIQMTQSPSSLSASVGDRVTIACRASQNIISYLNWYQQKPGKAPKFLIYTASSLQSGVPSRFSGSGSGTDFTLTISSLQPEDFAIYYCQQTYSTPLTFGGGTKVEIK
notes: mAb
B2: 5E5 (antibody, V domains shown)
VH: QVQLVESGGGVVQPGRSLRLSCAASGFTFSNYVMHWVRQAPGKGLEWVAVIWYDGSNKYYADSVKGRFTISRDNSKNTLYLQMNSLRAEDTAVYYCTREVYSSGWYDYGMDVWGQGTTVTVSS
VL: DIQMTQSPSSLSASVGDRVTITCRASQGIRNDLGWYQQKPGKAPKRLIYAASSLQSGVPSRFSGSGSGTEFTLTISSLQPEDFATYYCLQHYSYPRTFGQGTKVEVK
notes: mAb
B3: 7G4 (antibody, V domains shown)
VH: B2 VH with S30N, N84T, T97A, V100K, G104N
VL: B2 VL with K39R, F83S, Q90H, H91Q, V106I
notes: mAb
B4: 56E5 (antibody, V domains shown)
VH: QVQLVQSGAEVKKPGASVKVSCQASGYTFTGYHMHWVRQAPGQGLEWMGWINPNNNATNYAQKFQGRVTMTRDTSISTAYMELRRLRSDDTAVYHCARDGTSSFDYWGQGTLVTVSS
VL: DIQMTQSPSSVSASVGDRVTITCRASQGIRKWLAWYQQKPGKAPKLLIYAASSLQSGVPSRFSGSGSGTDFTLTISSLQPEDFATYYCQQANSFPFTFGPGTKVDIK
notes: mAb
B5: 72G9 (antibody, V domains shown)
VH: EVQLVESGGGLVKPGGSLRLSCAASGFTFSSYSMNWVRQAPGKGLEWVSSISGSSSYIYYADSVKGRFTISRDNAKNSLYLQMNSLRAEDTAVYFCARGGSRGFDPWGQGTLVTVSS
VL: B4 VL with V11L, G28S, R30T, K31S, W32Y, A34N, A50T, A91S, N92H
notes: mAb
B6: 22G5 (antibody, V domains shown)
VH: EVQLLESGGGLVQPGGSLRLSCAASGFTFSSYAMNWVRQAPGMGLEWVSVISRSGGYTYYADSVKGRFTISRDNSKNTLYLQMNSLRAEDTAVYYCASRLAVAGSEAFDIWGQGTLVTVSS
VL: DIQMTQSPSSLSASVGDRVTITCRASQNISSYLNWYQQKQGKAPKLLIYAASSLQNGVPSRFSGRGSGTDFTLTISSLQPEDFATYYCQQSYRTPLFTFGPGTKVDFK
notes: mAb
B7: 4A2 (antibody, V domains shown)
VH: QVQLVQSGTEVKKPGASVKVSCKASGYTFTNYDINWVRQATGQGLEWMGWMHPNSGNTGYAQKFQGRVTLTRNTSISTAYMELSSLRSEDTAVYYCASSSGWYYFDYWGQGTLVTVSS
VL: DIVMTQSPDSLAVSLGERATINCKSSQSILHSSNNNNYLAWFQQKPGQPPKLLLYWASTRESGVPDRFSGSGSGTDFTLTISSLQPEDVAVYYCQQYYNTPVTFGPGTKVGIK
notes: mAb
B8: 26C4 (antibody, V domains shown)
VH: B7 VH with T9A, T41S, H52N, K63R, L70M, S77N
VL: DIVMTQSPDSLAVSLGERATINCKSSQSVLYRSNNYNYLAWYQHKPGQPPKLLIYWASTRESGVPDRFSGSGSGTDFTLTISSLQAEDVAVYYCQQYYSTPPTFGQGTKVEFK
notes: mAb
B9: 25A4 (antibody, V domains shown)
VH: B7 VH with Q3L, T9A, K13R, H52Y, L70M
VL: DIVMTQFPDSLAVSLGERATIKCKSSQSVLYSSHNNNYLAWYQQKPGQPPKLLLYWASTRESGVPDRFSGSGSGTEFTLTISSLEAEDVAVYYCQQYYSTPPTFGQGTKVEIK
notes: mAb
B10: 29H8 (antibody, V domains shown)
VH: B7 VH with T9A, K12Q, H52N, K63R, L70M, T78A
VL: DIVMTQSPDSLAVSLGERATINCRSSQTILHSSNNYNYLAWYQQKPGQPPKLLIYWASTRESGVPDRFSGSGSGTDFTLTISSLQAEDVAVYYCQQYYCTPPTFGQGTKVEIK
notes: mAb
B11: 194A4 (antibody, V domains shown)
VH: QVQLVQSGTEVKKPGASLKVSCKASGYTFTVYYLNWVRQAPGQGLEWMGWINPNSGGTNYAQKFQGRVTMTRDTSISTAYMELSRLRSDDTAVYYCARGYDILTGWGQGTLVTVSS
VL: EIVLTQSPGTLSLSPGERATLSCRASRGVSNIYLAWYQQKPGQAPRLLIYGASNRATGIPDRFSGSGSGTDFTLTISRLEPEDFAVYYCQHNDYSMFTFGPGTKVDIK
notes: mAb
B12: 48B12 (antibody, V domains shown)
VH: EVQLLESGGGLVQPGGSLRLSCAASGFTFSSYAMNWVRQAPGKGLEWVSAISGRGGNTFYADSVKGRFTISRDNSKNTLYLQMNSLRAEDTAVYYCAKRETYNWNYEGFDYWGQGTLVTVSS
VL: SYELTQPPSVSVSPGQTARITCSGDALPKKYAYWYQQKSGQAPVLVIYEDSKRPSGIPERFSGSSSGTMATLTISGAQVEDEADYYCNSTDSSGNHVVFGGGTKLTVL
notes: mAb
B13: 184E7 (antibody, V domains shown)
VH: QVQLVQSGAEVKTPGASVKVSCRASGYTFTSYNMHWVRQVPGQGLEWMGWINPNNGGSNYTQKFQGRVTMTRDTSISTAYMELSRLRSDDTAVYYCARKFGDWGQGTLVTVSS
VL: DIQMTQSPSSRSASIGERVTITCRASQGISNYLAWIQQKPGTAPKSLIYAASSLQSGVSSRFSGSGFGTDFTITISSVQREDFATYYCQQYNGYPFTFGHGTKVDIK
notes: mAb
B14: 6G7 (antibody, V domains shown)
VH: QVQLVESGGGVVQPGRSLRLSCAASGFTFSSYGMHWVRQTPGKGLEWVAIISYVGKNKYYADSVKGRFTISRDNSKNTLYLQMNSLRAEDTAVYYCARRGNSYGGYGMDVWGQGTTVTVSS
VL: DIQMTQSPSSRSASVGDRVTITCQASQDISNYLNWCQQKPGKALKLLIYDASTLETGVPSRFSGSGSGTDFTFTISSVQPEDIATYYCQQYDNVPITFGQGTRLEIK
notes: mAb

Positions count from the first letter of the chain named.

The target in the first assay is T1, human ASGR-1 (wild type). Description: FACS, transfected CHO-S cells, mAb 5 ug/ml. Put shortly:
(§1)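 Transiently transfected CHO-S cells expressing wild-type or mutant hASGR-1 incubated with antibody at 5 ug/ml, 1 h at 4 °C; bound antibody detected by Alexa Fluor 647 anti-Fc plus 7-AAD, by flow cytometry. Binding normalized to expression using an unaffected antibody (65C12), then to wild type; hits defined as >3× IQR above third quartile.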
(In general: In flow cytometry, cells or beads pass a laser one at a time.)
Turning to B1, the “FACS Binding Geomean” value amounted to 45500.

As for B2, the “FACS Binding Geomean” value is 40700.

Consider B3, for which the “FACS Binding Geomean” value was found to be 48500.

B4: the “FACS Binding Geomean” value stood at 42600.

Turning to B5, the “FACS Binding Geomean” value turned out to be 36500.

Turning to B6, the “FACS Binding Geomean” value amounted to 45000.

Turning to B7, the “FACS Binding Geomean” value is 41100.

B8: the “FACS Binding Geomean” value came out at 46000.

B9: the “FACS Binding Geomean” value stood at 55600.

Take B10: the “FACS Binding Geomean” value was 40900.

With B11, the “FACS Binding Geomean” value is 16300.

Take B12: the “FACS Binding Geomean” value stood at 52500.

As for B13, the “FACS Binding Geomean” value was determined as 42700.

As for B14, the “FACS Binding Geomean” value worked out at 38600.

A further assay deals with T2, human ASGR-1 mutant construct H203. In words: FACS, transfected CHO-S cells, mAb 5 ug/ml. Put shortly: as §1
Take B1: the “FACS Binding Geomean” value was determined as 14700.

As for B2, the “FACS Binding Geomean” value stood at 12600.

Consider B3, for which the “FACS Binding Geomean” value stood at 18500.

Turning to B4, the “FACS Binding Geomean” value came out at 20300.

For B5, the “FACS Binding Geomean” value turned out to be 18800.

For B6, the “FACS Binding Geomean” value was 15100.

With B7, the “FACS Binding Geomean” value was 18900.

For B8, the “FACS Binding Geomean” value was found to be 13500.

For B9, the “FACS Binding Geomean” value came to 20000.

Regarding B10, the “FACS Binding Geomean” value stood at 13200.

On to B11, for which the “FACS Binding Geomean” value was 12100.

Regarding B12, the “FACS Binding Geomean” value is 20500.

In the case of B13, the “FACS Binding Geomean” value worked out at 18400.

On to B14, for which the “FACS Binding Geomean” value amounted to 15100.

The next assay shares this target. Description: FACS ratio: H203 normalized value / wt normalized value. The method, boiled down:
as §1
For B1, the “Normalization to wt ASGR1 Binding” value came out at 1.42.

B2: the “Normalization to wt ASGR1 Binding” value turned out to be 1.48.

As to B3, the “Normalization to wt ASGR1 Binding” value was 1.2.

Regarding B4, the “Normalization to wt ASGR1 Binding” value is 0.962.

Consider B5, for which the “Normalization to wt ASGR1 Binding” value came out at 0.893.

Turning to B6, the “Normalization to wt ASGR1 Binding” value turned out to be 1.37.

B7: the “Normalization to wt ASGR1 Binding” value came to 0.997.

In the case of B8, the “Normalization to wt ASGR1 Binding” value stood at 1.57.

Consider B9, for which the “Normalization to wt ASGR1 Binding” value worked out at 1.27.

For B10, the “Normalization to wt ASGR1 Binding” value was 1.42.

As to B11, the “Normalization to wt ASGR1 Binding” value amounted to 0.616.

As to B12, the “Normalization to wt ASGR1 Binding” value came out at 1.18.

As to B13, the “Normalization to wt ASGR1 Binding” value worked out at 1.07.

With B14, the “Normalization to wt ASGR1 Binding” value was determined as 1.18.

Values taken from patent publication US20190248902A1 (published 2019).
